Residue numbers refer to the chain shown, from its start.

The term Kd denotes the equilibrium constant for the complex coming apart. As a reminder, the koff is a measure of how fast the partners let go of each other. A lower koff goes with a long-lived complex. One may read the kon as the second-order rate constant of association.

First the molecules themselves.
T1: ULBP6 (NKG2D natural ligand) (Homo sapiens (Human), UniProt Q5VY80 26-218)
T1 sequence: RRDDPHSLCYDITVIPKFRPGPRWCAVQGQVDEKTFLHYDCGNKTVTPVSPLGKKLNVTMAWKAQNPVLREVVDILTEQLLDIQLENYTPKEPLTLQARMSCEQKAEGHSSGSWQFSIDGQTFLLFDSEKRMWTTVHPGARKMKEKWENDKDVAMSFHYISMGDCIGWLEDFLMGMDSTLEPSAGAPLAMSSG

T2: human NKG2D expressed on EL4 cells (human, UniProt P26718 1-216)
T2 construct: whole, on cells; also called NKG2D on EL4 cells; extracellular NKG2D expressed on EL4 cells
T2 sequence (looked up): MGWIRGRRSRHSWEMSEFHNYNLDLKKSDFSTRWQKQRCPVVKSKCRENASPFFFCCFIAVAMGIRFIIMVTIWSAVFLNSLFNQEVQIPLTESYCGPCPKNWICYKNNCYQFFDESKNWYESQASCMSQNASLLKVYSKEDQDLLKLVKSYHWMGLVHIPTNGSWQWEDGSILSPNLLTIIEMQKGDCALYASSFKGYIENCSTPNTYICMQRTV

B1: NKG2D monoclonal antibody comprising F47 (antibody, V domains shown)
VH: QVQLQQWGAGLLKPSETLSLTCAVYGGSFSGYYWSWIRQPPGKGLEWIGEIDHSGSTNYNPSLKSRVTISVDTSKNQFSLKLSSVTAADTAVYYCARARGPWSFDPWGQGTLVTVSS
VL: DIQMTQSPSTLSASVGDRVTITCRASQSISSWLAWYQQKPGKAPKLLIYKASSLESGVPSRFSGSGSGTEFTLTISSLQPDDFATYYCQQYDTFITFGGGTKVEIK
notes: Monoclonal antibody
B2: Human monoclonal antibody containing NKG2D-binding domain ADI-29379 (antibody, V domains shown)
VH: QVQLVQSGAEVKKPGASVKVSCKASGYTFTSYYMHWVRQAPGQGLEWMGIINPSGGSTSYAQKFQGRVTMTRDTSTSTVYMELSSLRSEDTAVYYCARGAPNYGDTTHDYYYMDVWGKGTTVTVSS
VL: EIVMTQSPATLSVSPGERATLSCRASQSVSSNLAWYQQKPGQAPRLLIYGASTRATGIPARFSGSGSGTEFTLTISSLQSEDFAVYYCQQYDDWPFTFGGGTKVEIK
notes: Tested as a human monoclonal antibody; also called E79; ADI-29379 (E79)
B3: Human monoclonal antibody containing NKG2D-binding domain ADI-29378 (antibody, V domains shown)
VH: QVQLVQSGAEVKKPGASVKVSCKASGYTFTSYYMHWVRQAPGQGLEWMGIINPSGGSTSYAQKFQGRVTMTRDTSTSTVYMELSSLRSEDTAVYYCAREGAGFAYGMDYYYMDVWGKGTTVTVSS
VL: B2 VL with M4L, V13L, N32Y, G50D, T53N, E70D, Q79E, S80P, Y91S, D93N
notes: Tested as a human monoclonal antibody; also called E78; ADI-29378 (E78)
B4: soluble mouse Fc-human NKG2D dimer (Fc fusion, UniProt P26718 78-216, looked up)
chain: FLNSLFNQEVQIPLTESYCGPCPKNWICYKNNCYQFFDESKNWYESQASCMSQNASLLKVYSKEDQDLLKLVKSYHWMGLVHIPTNGSWQWEDGSILSPNLLTIIEMQKGDCALYASSFKGYIENCSTPNTYICMQRTV
notes: also called mFc-hNKG2D; fusion protein of human NKG2D and murine Fc; not shown: mouse (murine) Fc
B5: CD33-TriNKET-A44 (ADI-27744 and a CD33 binding domain) (bispecific antibody, V domains shown)
VH 1: not shown
VL 1: DIQMTQSPSSVSASVGDRVTITCRASQGIDSWLAWYQQKPGKAPKLLIYAASSLQSGVPSRFSGSGSGTDFTLTISSLQPEDFATYYCQQGVSYPRTFGGGTKVEIK
VH 2: QVQLVQSGAEVKKPGASVKVSCKASGYTFTDYVVHWVRQAPGQGLEWMGYINPYNDGTKYNEKFKGRVTMTRDTSISTAYMELSRLRSDDTAVYYCARDYRYEVYGMDYWGQGTLVTVSS
VL 2: DIVLTQSPASLAVSPGQRATITCTASSSVNYIHWYQQKPGQPPKLLIYDTSKVASGVPARFSGSGSGTDFTLTINPVEANDTANYYCQQWRSYPLTFGQGTKLEIK
B6: CD33-TriNKET-F63 (ADI-29463 and a CD33 binding domain) (bispecific antibody, V domains shown)
VH 1: not shown
VL 1: B2 VL with M4L, A9G, V13L, Y91D, D93Y, F96P
VH 2: B5 VH 2
VL 2: B5 VL 2
B7: NKG2D monoclonal antibody comprising ADI-27749 (antibody, V domains shown)
VH: EVQLVESGGGLVKPGGSLRLSCAASGFTFSSYSMNWVRQAPGKGLEWVSSISSSSSYIYYADSVKGRFTISRDNAKNSLYLQMNSLRAEDTAVYYCARGAPMGAAAGWFDPWGQGTLVTVSS
VL: B5 VL 1 with D30S, Y94F
notes: also called A49
B8: NKG2D monoclonal antibody comprising ADI-27744 (antibody, V domains shown)
VH: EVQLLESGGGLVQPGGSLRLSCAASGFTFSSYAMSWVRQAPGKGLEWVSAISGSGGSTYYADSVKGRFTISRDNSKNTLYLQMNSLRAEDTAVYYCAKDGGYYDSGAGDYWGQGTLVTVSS
VL: B5 VL 1
notes: also called A44
B9: CD33-TriNKET-A49 (ADI-27749 and a CD33 binding domain) (bispecific antibody, V domains shown)
VH 1: B7 VH
VL 1: B5 VL 1 with D30S, Y94F
VH 2: B5 VH 2
VL 2: B5 VL 2

Assay [1] deals with B4. Description: SPR (Biacore 8K, 25 C), captured mouse Fc-human NKG2D, consecutive injections; F47 injected after A44 was bound. From the text:
(§1) Briefly, mouse Fc-human NKG2D was captured using an anti-mouse Fc antibody immobilized on a CM5 chip at a density of approximately 100 RU. […] Biacore 8K evaluation software was used for all data analysis.
In general terms: In SPR one partner is held on a chip, and binding of the other changes the refractive index at the surface.

Assay [2] deals with B4. Nature of the assay: SPR (Biacore 8K), antibody captured on anti-human Fc, soluble mouse Fc-human NKG2D dimer as analyte, 37 C, kd/ka. Here is the method:
(§2) Kinetics and affinity of various NKG2D-binding domains were assessed by surface plasmon resonance using Biacore 8K instrument (GE Healthcare). Anti-human Fc antibody was immobilized on a CM5 chip using standard amine coupling chemistry. Human monoclonal antibodies containing various NKG2D-binding domains were captured on the anti-human Fc chip at a density of approximately 100 RU. Solutions containing 0.411-100 nM soluble mouse Fc-human NKG2D dimers were injected over the captured NKG2D antibodies and control surfaces at 30 μl/min at 37° C. Surfaces were regenerated between cycles by quick injection of 10 mM glycine, pH 1.8. To obtain kinetic rate constants, double-referenced data were fit to a 1:1 interaction model using Biacore 8K Evaluation software (GE Healthcare). The equilibrium binding constant KD was determined by the ratio of dissociation constant kd and association constant kₐ (kd/kₐ).

Assay [3] concerns the target B4. Nature of the assay: SPR (Biacore 8K), antibody captured on anti-human Fc, soluble mouse Fc-human NKG2D dimer as analyte, 37 C, 1:1 fit. The protocol: as §2
Assay [4] concerns the target T1, ULBP6 (NKG2D natural ligand). Description: SPR (Biacore 8K, 25 C), captured mouse Fc-human NKG2D, consecutive injections; ULBP6 injected after A44 (ADI-27744 antibody) was bound.
From the text: as §1

Assay [5] has as its target T3, CD33 expressed on human AML cell line MV4-11 (human, UniProt P20138 18-364).
T3 construct: whole, on cells; also called CD33 expressed on Mv4-11 cells
Nature of the assay: flow cytometry on Mv4-11 cells, anti-human IgG secondary, fold over background against secondary antibody control. The protocol: Human AML cell line MV4-11, expressing CD33 was used to assay the binding of TriNKETs to the tumor-associated antigen. TriNKETs and the parental CD33 monoclonal antibody were incubated with the cells, and the binding was detected using fluorophore-conjugated anti-human IgG secondary antibodies. Cells were analyzed by flow cytometry, and fold-over-background (FOB) was calculated using the mean fluorescence intensity (MFI) from TriNKETs and the parental monoclonal CD33 antibody normalized to secondary antibody controls.
A general note: Flow cytometry measures light scatter and fluorescence of single cells or particles in a stream.

For assay [6], the target named is T2, human NKG2D expressed on EL4 cells. Description: flow cytometry on EL4 cells expressing NKG2D, anti-human IgG secondary, fold over background against parental EL4 cells. Here is the method: EL4 mouse lymphoma cell lines were engineered to express human NKG2D. […] The binding of the multispecific binding proteins to NKG2D was detected using fluorophore-conjugated anti-human IgG secondary antibodies. Cells were analyzed by flow cytometry, and fold-over-background (FOB) was calculated using the mean fluorescence intensity (MFI) of NKG2D expressing cells compared to parental EL4 cells.

The target in assay [7] is B4. Nature of the assay: SPR (Biacore 8K); lower end of the group's range, tied to ADI-27744 by Table 9. Here is the method: as §2

T3 sequence (P20138 18-364): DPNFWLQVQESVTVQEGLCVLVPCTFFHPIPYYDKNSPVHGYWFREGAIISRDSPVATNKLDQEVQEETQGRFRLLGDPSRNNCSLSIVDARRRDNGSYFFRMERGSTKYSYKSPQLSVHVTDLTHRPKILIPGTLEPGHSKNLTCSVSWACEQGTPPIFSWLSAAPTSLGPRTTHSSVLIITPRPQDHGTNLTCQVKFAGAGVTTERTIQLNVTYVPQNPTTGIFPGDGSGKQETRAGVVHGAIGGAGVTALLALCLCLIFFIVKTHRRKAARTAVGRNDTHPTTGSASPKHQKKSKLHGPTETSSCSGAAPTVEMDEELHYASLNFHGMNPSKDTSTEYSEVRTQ

In the case of B1, in assay [1], the binding result is on record as “binds”.
The molecule B2 returned a Kd in assay [2] of 50.7 nM. In assay [3], this molecule returned a koff of 0.0225 s⁻¹ and a kon of 443000 M⁻¹ s⁻¹.
In the same order, the values of B3 are 58.5 nM, 0.0487 s⁻¹ and 832000 M⁻¹ s⁻¹.
B4: the binding result in assay [4] is “binds”.
On to B5, for which the binding result in assay [5] and in assay [6] was “binds” each time.
Turning to B6, the binding result in assay [5] is on record as “binds”.
B7 showed a Kd in assay [2] of 12.4 nM. In assay [3], the koff is 0.00489 s⁻¹ and the kon was found to be 395000 M⁻¹ s⁻¹.
For the molecule B8, the Kd in assay [7] lay within 10 to 62 nM. The same molecule came in with a Kd in assay [2] of 10.1 nM. In assay [3], the koff was 0.00299 s⁻¹ and the kon came to 295000 M⁻¹ s⁻¹.
As to B9, the binding result in assay [5] and in assay [6] was “binds” each time.

Source of the values: patent publication US20240076384A1 (DRAGONFLY THERAPEUTICS, published 2024).
